{"source": "patent US20230227514A1", "about": "“BETA-ARRESTIN COMPOSITIONS AND ASSOCIATED METHODS” (Duke University, priority 2020, published 2023)", "key": {"[1]": {"biological_target": "T1, D1 dopamine receptor (D1R) (Homo sapiens, UniProt P21728)", "T1 construct": "expressed in transfected cells", "T1 sequence (P21728 whole entry)": "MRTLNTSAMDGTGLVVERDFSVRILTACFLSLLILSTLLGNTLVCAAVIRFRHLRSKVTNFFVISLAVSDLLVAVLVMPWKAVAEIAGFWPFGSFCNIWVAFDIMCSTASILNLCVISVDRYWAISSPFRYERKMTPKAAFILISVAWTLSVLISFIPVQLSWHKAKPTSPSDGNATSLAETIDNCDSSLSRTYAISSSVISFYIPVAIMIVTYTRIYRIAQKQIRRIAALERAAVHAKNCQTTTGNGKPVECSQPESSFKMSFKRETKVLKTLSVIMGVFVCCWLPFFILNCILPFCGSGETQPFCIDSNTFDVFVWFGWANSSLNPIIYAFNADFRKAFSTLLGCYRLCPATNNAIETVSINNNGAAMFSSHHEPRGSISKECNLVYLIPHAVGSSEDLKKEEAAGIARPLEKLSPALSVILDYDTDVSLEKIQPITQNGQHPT", "test": "Confocal trafficking and colocalization with D1R", "assay_type": "cell-based", "conditions": "HEK-293 cells with stable D1R expression; dopamine 15 minutes", "procedure": "(§1) Immunostaining and confocal microscopy. […] Twenty-four hours post-transfection, cells were serum-starved for 4 h, and either left untreated or treated with respective agonists for the indicated times in the Figure descriptions. After stimulation, cells were fixed with 5% formaldehyde diluted in phosphate-buffered saline (PBS), permeabilized with 0.1% Triton in PBS containing 2% bovine serum albumin for 20 min and incubated at room temperature with appropriate primary antibody. The next day, cells were washed three times with PBS and incubated with Alexa594 conjugated secondary antibody for 1 h, followed by repeated washes using PBS. Confocal images were acquired using Zeiss LSM510 laser-scanning microscope using multitrack sequential with excitation (488 and 568 nm) and emission (BP 505-550 nm and LP 585 nm) filter sets. Images (1024×1024 pixels) were collected using either a 63× or 100× oil immersion lens. Images were processed for Figure presentation using Adobe Photoshop software, and any increase or decrease of brightness/contrast was applied to the entire image. The nuclear rim localization of YFP-βarrestin2-SUMO1 is readily visualized in cells with low to moderate expression of YFP-protein. In cells with high expression, this localization is present, and can be discerned by enlarging sections of the nuclear rim. […]"}, "HEK-293 cells": {"tested_on": "HEK-293 cells", "test": "Confocal microscopy of subcellular distribution of YFP-tagged proteins", "assay_type": "cell-based, Human", "conditions": "85 cells (mYFP-βarrestin2-SUMO1) and 80 cells (mYFP-SUMO1) observed", "procedure": "as §1, with “Images (1024×1024 pixels) were collected using either a 63× or 100× oil immersion lens. Images were processed for Figure presentation using Adobe Photoshop software, and any increase or decrease of brightness/contrast was applied to the entire image.” left out, “YFP-protein.” for “YFP-protein. In cells with high expression, this localization is present, and can be discerned by enlarging sections of the nuclear rim.”\nTo circumvent this issue, a YFP tagged βarrestin2-SUMO1 fusion protein was generated, which would be resistant to the enzymatic activity of SENP1. YFP-βarrestin2-SUMO1 expressed in the cytoplasm akin to YFP-βarrestin2; but was also detected at the nuclear membrane (data not shown). […] While YFP-SUMO1 was concentrated in the nucleus, and nucleoli, very little βarrestin2-SUMO1 was detected in the nucleus or nucleolus. […]"}, "β2AR [2]": {"biological_target": "T2, β2AR (Homo sapiens, UniProt P07550)", "T2 construct": "Flag (N); expressed in transfected cells", "test": "BRET titration assay of βarrestin2 construct recruitment to β2AR-Rluc", "assay_type": "cell-based", "conditions": "HEK-293T cells; β2AR-Rluc with YFP acceptor constructs; isoproterenol 1 μM, 5 min; compared among βarrestin2 constructs", "excerpt": "BRET assays. […] Titration assays were first completed, which allowed determination of the specificity of association among different interaction partners. See Nagi and Shenoy. 2019, supra; Gales et al. 2005. Nature methods 2:177-184; Nagi et al. 2015. Cellular and molecular life sciences: CMLS 72:3543-3557; Audet and Pineyro. 2011. Methods in molecular biology 756:149-163; and Rebois et al. 2006. Journal of cell science 119:2807-2818. To achieve this, a fixed amount of the donor-tagged (Renilla luciferase, Rluc) construct was co-transfected with increasing amounts of the corresponding interaction partner bearing the acceptor (YFP). […] BRET readings were acquired using Synergy Neo2 plate reader and obtained 5 min after manual addition of Rluc substrate, coelenterazine h (Promega) to a final concentration of 5 μM.\nThe BRET signal generated was determined by calculating the ratio of light emitted by YFP (520-550 nm) over the light emitted by Rluc (440-480 nm). These values were then corrected by subtracting the background signal (detected when the Rluc-tagged construct was expressed without acceptor) from the BRET signal detected in cells co-expressing both donor and acceptor constructs. Agonist-induced BRET values were calculated by subtracting net BRET values of non-stimulated conditions from net BRET values corresponding to the stimulated conditions. […]"}, "D2R": {"biological_target": "T3, D2R (Homo sapiens, UniProt P14416)", "T3 construct": "HA (N); expressed in transfected cells", "T3 sequence (P14416 whole entry)": "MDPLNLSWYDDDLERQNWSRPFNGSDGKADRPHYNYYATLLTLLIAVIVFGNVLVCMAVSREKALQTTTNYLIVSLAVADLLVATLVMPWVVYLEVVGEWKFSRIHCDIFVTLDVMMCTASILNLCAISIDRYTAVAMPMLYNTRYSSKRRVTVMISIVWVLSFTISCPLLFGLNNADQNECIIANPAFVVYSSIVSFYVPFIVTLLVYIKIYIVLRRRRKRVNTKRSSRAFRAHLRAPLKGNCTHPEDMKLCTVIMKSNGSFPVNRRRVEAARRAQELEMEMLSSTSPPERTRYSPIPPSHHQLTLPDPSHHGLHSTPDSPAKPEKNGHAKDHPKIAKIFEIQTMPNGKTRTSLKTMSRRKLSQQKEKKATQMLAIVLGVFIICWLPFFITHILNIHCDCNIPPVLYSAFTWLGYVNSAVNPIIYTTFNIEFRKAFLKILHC", "test": "Confocal trafficking and colocalization with D2R", "assay_type": "cell-based", "conditions": "HEK-293 cells stably expressing D2R", "procedure": "as §1"}, "β2AR [3]": {"biological_target": "T2, β2AR", "test": "Confocal trafficking and colocalization with β2AR", "assay_type": "cell-based", "conditions": "HEK-293 cells with stable β2AR expression; agonist up to 20 minutes", "procedure": "Immunostaining and confocal microscopy. […] Twenty-four hours post-transfection, cells were serum-starved for 4 h, and either left untreated or treated with respective agonists for the indicated times in the Figure descriptions. After stimulation, cells were fixed with 5% formaldehyde diluted in phosphate-buffered saline (PBS), permeabilized with 0.1% Triton in PBS containing 2% bovine serum albumin for 20 min and incubated at room temperature with appropriate primary antibody. The next day, cells were washed three times with PBS and incubated with Alexa594 conjugated secondary antibody for 1 h, followed by repeated washes using PBS. Confocal images were acquired using Zeiss LSM510 laser-scanning microscope using multitrack sequential with excitation (488 and 568 nm) and emission (BP 505-550 nm and LP 585 nm) filter sets. Images (1024×1024 pixels) were collected using either a 63× or 100× oil immersion lens. Images were processed for Figure presentation using Adobe Photoshop software, and any increase or decrease of brightness/contrast was applied to the entire image. The nuclear rim localization of YFP-βarrestin2-SUMO1 is readily visualized in cells with low to moderate expression of YFP-protein. In cells with high expression, this localization is present, and can be discerned by enlarging sections of the nuclear rim.\nFor βarrestin2-SUMO1, plasma membrane translocation was detected upon β2AR agonist activation, and, intriguingly, βarrestin2-SUMO1 was detected in endocytic vesicles. […] Confocal images were taken of cells stably expressing the β2AR and transiently expressing YFP-SUMO1 (data not shown). In both quiescent and agonist-treated cells, the SUMO1 protein remained in the nucleus. […] See Shenoy et al. 2007, supra; Shenoy and Lefkowitz. 2005. J Biol Chem 280:15315-15324; and Shenoy and Lefkowitz. 2003. J Biol Chem 278:14498-14506. Therefore, the endosomal trafficking was compared for βarrestin2-ubiquitin (βarrestin2-Ub) fusion protein and internalized β2ARs. […]"}}}
{"substance": "βarrestin2-SUMO1: rat βarrestin2 polypeptide fused to human SUMO1 (SEQ ID NO:1); used YFP- or Flag-tagged", "values": [{"measurement": "association with D1R after dopamine activation (confocal)", "setting": "[1]", "result": "strongly and stably"}, {"measurement": "localization of YFP fluorescence at the nuclear membrane", "setting": "HEK-293 cells", "result": "all cells"}, {"measurement": "agonist-induced net BRET change for interaction with β2AR", "setting": "β2AR [2]", "result": "highest change in the net BRET value"}, {"measurement": "stability of association with activated D2R (confocal)", "setting": "D2R", "result": "associate stably"}, {"measurement": "colocalization / complexes with β2AR after agonist activation (confocal)", "setting": "β2AR [3]", "result": "persisted with longer agonist activation"}]}
